This note sets out measurements from US20200002431A1 (Seagen, published 2020).

In the test the target is T1, human BCMA (B-cell maturation antigen, CD269) expressed on cells (human, UniProt Q02223 1-184).
T1 construct: Endogenous on myeloma lines (NCI-H929, U266, JJN3) or a full-length clone transfected into HEK 293 cells; also called hBCMA; BCMA expressed on NCI-H929 cells
T1 sequence: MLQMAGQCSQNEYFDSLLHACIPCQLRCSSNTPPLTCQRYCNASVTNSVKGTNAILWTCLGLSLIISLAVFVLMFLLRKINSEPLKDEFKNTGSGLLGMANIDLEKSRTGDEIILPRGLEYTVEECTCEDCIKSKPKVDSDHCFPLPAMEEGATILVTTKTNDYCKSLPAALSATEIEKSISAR
In words: cell binding, U266 cells, full range of concentration points.

Numbering of substitutions follows the chain as printed.

B1: hSG16.17 vH2 vK4 (antibody, V domains shown)
VH: QVQLVQSGAEVKKPGASVKLSCKASGYTFTDYYMHWVRQAPGQGLEWIGRINPNSGYTNYAQKFQGRVTMTADKSINTAYVELSRLRSDDTAVYFCTRYMWERVTGFFDFWGQGTMVTVSS
VL: DIQMTQSPSSVSASVGDRVTITCLASEDISDDLAWYQQKPGKAPKVLVYTTSRLQSGVPSRFSGSGSGTDFTLTISSMQPEDFADYFCQQTYKFPPTFGGGTKVEIKR
notes: also called hSG16.17 7
Take B1: the binding result was “binds”.

B2: hSG16.17 vH2 vK5 (antibody, V domains shown)
VH: B1 VH
VL: B1 VL with L24R, P40S, R53S, M78L, D85T
notes: also called hSG16.17 8
With B2, the binding result is on record as “binds”.
